Laboratory results from the nanobody polyreactivity screen of Harvey et al. (2022).

Experiment: yeast display, Sf9 membrane polyspecificity reagent, FACS + sequencing; frameworks hold sequencing errors
Summary of the method: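 Synthetic nanobody libraries on Saccharomyces cerevisiae BJ5465 were galactose-induced for 36–48 hours, stained 1 hour at 4 °C with 10% biotinylated, detergent-solubilized Sf9 membrane reagent and enriched on streptavidin microbeads. FACS then separated cells into low and high (top ~1%) gates by anti-HA (expression) and streptavidin (reagent binding) fluorescence. Genes were colony-PCR amplified, MiSeq 2 × 250 sequenced and CDR-length filtered. A clone's polyreactivity label is that of its gate of origin.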

Sequence | polyreactivity (PSR sort gate)
QVQLVESGGGLVQAGGSLRLSCAASGRILSYYAMGWYRQAPGKERELVAVIRRGASTYADSVKGRFTISRDNAKNTVYLQMNSLKPEDTAVYYCNADRVVGLSATKYGYWGQGTQVTVSS | low polyreactivity
QVQLVESGGGLVQAGGSLRLSCAASGRIFRYNAMGWYRQAPGKERELVAAIRFSGGSTYYADSVKGRFTISRDNAKNTVYLQMNSLKPEYSAVYYCAKVYFRVQSGMDYWGQGTQVTVSS | low polyreactivity
QVQLVESRGGLVQAGGSLRLSCAASGSTFPGYAMGCYRQAPGKERELVAAISRSGGSTSYADSVKGRFTISRDKAQNTVYLQLHSLKPEDTEVYYCAAQVQGTSRAKQRGGIGELDYWGQGTQVTVSS | low polyreactivity
QVQLEESGGGLVQAGGSLRLSCAASGRSFYGNAMGWYRQAPGKERELVAASSSRSSSTSYADSVKGRFTISRANAKNTVYLLMNSLKPEDTAVYYCATRYGSRTWYGYNYWGQATQVTVSS | high polyreactivity
QVQLVESGGGLVQAGGSLRLSCAASGFTFPRYAMGWYRQAPGKERELVAAITSGDRTYYADSVKGRFTISRDNAKNTVYLQMNSLKPEDTAVYYCAKSSPRKSSQKHSFYEYNYWGQGTQVTVSS | high polyreactivity
QVQLVESGGGLVQAGGSLRLSCAASGFIFVYYVMGWYRQAPGKERELVAAITQSGGSTYYADSVKGRFTISRDNAKYTVYLQMNSLKPEDTAVYYCAAYRRTTGGGYDYWGQGTQVTVSS | high polyreactivity
QVQLVESGGGLVQAGGSLRLSCAASGSTFSYNAMGWYRQAPGKERELVAAISNGGSTNYADSVKGRFTISRDNAKNTVSLQMNSLKPEDTAVYYCAAHTYSELSWLVVYPYDYWGQGTQVTVSS | low polyreactivity
QVQLVESGGGLVQAGGSLRLSCAASGSIFFAYAMGWYRQAPGKERELVAAIRSGVRTNYADSVKGRFTISRDNAKNTVYIQMNSLKPEDTAVYYCNTDLSKFGHRVSLSGYDYWGQGTQVNVSS | low polyreactivity
